Experimental data as given in article PMC2639635, “The Structure of Phosphorylase Kinase Holoenzyme at 9.9 Å Resolution and Location of the Catalytic Subunit and the Substrate Glycogen Phosphorylase” (Structure(London, England:1993), 2009).

T1: phosphorylase kinase α subunit (rabbit (endogenous in skeletal muscle), UniProt P18688 1-1237)
T1 construct: phosphorylase kinase α subunit, regulatory, skeletal muscle; printed as 138 kDa, 1237 amino acids; In the aged preparation used for Superdex 200 gel filtration the α subunit may have been partly proteolysed; source: purified from rabbit fast-twitch skeletal muscle as part of the PhK holoenzyme
T1 sequence (looked up): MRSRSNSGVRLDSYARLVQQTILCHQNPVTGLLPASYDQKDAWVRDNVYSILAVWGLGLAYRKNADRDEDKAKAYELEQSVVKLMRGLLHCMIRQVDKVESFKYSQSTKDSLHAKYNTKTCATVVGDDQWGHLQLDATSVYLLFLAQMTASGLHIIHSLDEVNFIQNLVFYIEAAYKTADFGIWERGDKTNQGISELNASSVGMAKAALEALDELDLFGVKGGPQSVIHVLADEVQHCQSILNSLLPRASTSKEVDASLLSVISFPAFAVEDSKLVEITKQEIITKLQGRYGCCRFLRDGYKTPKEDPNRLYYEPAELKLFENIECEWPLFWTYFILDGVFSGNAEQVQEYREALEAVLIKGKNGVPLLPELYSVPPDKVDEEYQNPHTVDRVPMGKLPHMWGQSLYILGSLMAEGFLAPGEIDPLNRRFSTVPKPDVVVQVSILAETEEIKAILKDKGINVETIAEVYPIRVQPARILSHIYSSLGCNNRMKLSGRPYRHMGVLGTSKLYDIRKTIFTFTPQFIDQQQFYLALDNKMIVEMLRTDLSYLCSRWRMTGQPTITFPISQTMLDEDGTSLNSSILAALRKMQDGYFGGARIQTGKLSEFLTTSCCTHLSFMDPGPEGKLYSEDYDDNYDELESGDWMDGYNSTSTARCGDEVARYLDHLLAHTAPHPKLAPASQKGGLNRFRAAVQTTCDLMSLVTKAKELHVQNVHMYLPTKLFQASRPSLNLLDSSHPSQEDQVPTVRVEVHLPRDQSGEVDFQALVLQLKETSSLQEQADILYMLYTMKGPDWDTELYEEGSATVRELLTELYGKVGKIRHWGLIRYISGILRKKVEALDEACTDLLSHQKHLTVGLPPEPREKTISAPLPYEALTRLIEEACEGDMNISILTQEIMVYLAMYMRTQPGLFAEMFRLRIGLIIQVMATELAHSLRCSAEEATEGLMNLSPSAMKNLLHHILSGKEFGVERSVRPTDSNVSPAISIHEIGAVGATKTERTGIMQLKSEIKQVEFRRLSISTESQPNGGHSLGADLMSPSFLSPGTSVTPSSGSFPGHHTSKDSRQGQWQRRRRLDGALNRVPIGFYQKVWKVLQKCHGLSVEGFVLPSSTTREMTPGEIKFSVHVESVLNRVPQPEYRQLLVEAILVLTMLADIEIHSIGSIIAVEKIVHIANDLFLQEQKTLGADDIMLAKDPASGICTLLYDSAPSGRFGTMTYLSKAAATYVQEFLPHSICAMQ

B1: phosphorylase kinase β subunit (natural protein, rabbit (endogenous in skeletal muscle), UniProt P12798 1-1093, looked up)
chain: MAGATGLMAEVSWKVLERRARTKRSGSVYEPLKSINLPRPDNETLWDKLDYYYKIVKSTLLLYQSPTTGLFPTKTCGGDQTAKIHDSLYCAAGAWALALAYRRIDDDKGRTHELEHSAIKCMRGILYCYMRQADKVQQFKQDPRPTTCLHSLFNVHTGDELLSYEEYGHLQINAVSLYLLYLVEMISSGLQIIYNTDEVSFIQNLVFCVERVYRVPDFGVWERGSKYNNGSTELHSSSVGLAKAALEAINGFNLFGNQGCSWSVIFVDLDAHNRNRQTLCSLLPRESRSHNTDAALLPCISYPAFALDDDVLYNQTLDKVIRKLKGKYGFKRFLRDGYRTSLEDPKRRYYKPAEIKLFDGIECEFPIFFLYMMIDGVFRGNPKQVKEYQDLLTPVLHQTTEGYPVVPKYYYVPADFVEYEKRNPGSQKRFPSNCGRDGKLFLWGQALYIIAKLLADELISPKDIDPVQRYVPLQNQRNVSMRYSNQGPLENDLVVHVALVAESQRLQVFLNTYGIQTQTPQQVEPIQIWPQQELVKAYFHLGINEKLGLSGRPDRPIGCLGTSKIYRILGKTVVCYPIIFDLSDFYMSQDVLLLIDDIKNALQFIKQYWKMHGRPLFLVLIREDNIRGSRFNPMLDMLAALKNGMIGGVKVHVDRLQTLISGAVVEQLDFLRISDTEELPEFKSFEELEPPKHSKVKRQSSTSNAPELEQQPEVSVTEWRNKPTHEILQKLNDCSCLASQTILLGILLKREGPNFITQEGTVSDHIERLYRRAGSKKLWLAVRYGAAFTQKFSSSIAPHITTFLVHGKQVTLGAFGHEEEVISNPLSPRVIKNIIYYKCNTHDEREAVIQQELVIHIGWIISNNPELFSGMLKIRIGWIIHAMEYELQIRSGDKPAKDLYQLSPSEVKQLLLDILQPQQNGRCWLNKRQIDGSLNRTPTGFYDRVWQILERTPNGIIVAGKHLPQQPTLSDMTMYEMNFSLLVEDMLGNIDQPKYRQIVVELLMVVSIVLERNPELEFQDKVDLDKLVKEAFHEFQKDESRLKEIEKQDDMTSFYNTPPLGKRGTCSYLTKVVMNLLLEGEVKPSNEDSCLVS
notes: phosphorylase kinase β subunit, regulatory; printed as 125 kDa, 1092 amino acids; source: purified from rabbit fast-twitch skeletal muscle as part of the PhK holoenzyme

Tests used:
Conditions in all cases: both partners purified
[1] = biological target: T1, phosphorylase kinase α subunit; experiment: cryo-EM structure; PhK holoenzyme alone, subunits co-purified as the native complex from muscle; 100 mM NaCl, 0.3 mM CaCl2, 5 mM MgCl2, 50 mM HEPES pH 8.2; single-particle reconstruction at 9.9 Å; PhKγt (PDB 2PHK) fitted as a rigid body
[2] = biological target: B1; experiment: as above
[3] = biological target: T2, phosphorylase kinase δ subunit (intrinsic calmodulin) (rabbit (endogenous in skeletal muscle), UniProt P62160 1-149); experiment: as above
T2 construct: phosphorylase kinase δ subunit, the intrinsic calmodulin; printed as 16.7 kDa, 148 amino acids; also called δ-calmodulin subunit; calmodulin-δ-subunit; source: purified from rabbit fast-twitch skeletal muscle as part of the PhK holoenzyme

[4] = biological target: T1, phosphorylase kinase α subunit; experiment: SEC; analytical Superdex 200 gel filtration of the PhK preparation several months after purification; fractions analysed by SDS-PAGE with Coomassie staining; subunits co-purified as the native complex

binding result [1] | binding result [2] | binding result [3] | binding result [4] | Binder
binds | binds | binds | – | phosphorylase kinase γ subunit (catalytic subunit) (natural protein, phosphorylase kinase γ subunit, catalytic; also called γ catalytic subunit; γ kinase subunit; source: purified from rabbit fast-twitch skeletal muscle as part of the PhK holoenzyme) not shown
– | – | – | binds | B1
